The source of these data is patent publication EP4596582A1 (Sichuan Kelun-Biotech Biopharmaceutical Co., Ltd., dated 2025).

Test [1] has as its target T1, human B7-H3-4Ig on CHO-S cells (CHO-S-human B7-H3-4Ig) (human, UniProt Q5ZPR3 29-534).
T1 construct: whole, on cells; also called CHO-S-B7-H3-4Ig
T1 sequence (looked up): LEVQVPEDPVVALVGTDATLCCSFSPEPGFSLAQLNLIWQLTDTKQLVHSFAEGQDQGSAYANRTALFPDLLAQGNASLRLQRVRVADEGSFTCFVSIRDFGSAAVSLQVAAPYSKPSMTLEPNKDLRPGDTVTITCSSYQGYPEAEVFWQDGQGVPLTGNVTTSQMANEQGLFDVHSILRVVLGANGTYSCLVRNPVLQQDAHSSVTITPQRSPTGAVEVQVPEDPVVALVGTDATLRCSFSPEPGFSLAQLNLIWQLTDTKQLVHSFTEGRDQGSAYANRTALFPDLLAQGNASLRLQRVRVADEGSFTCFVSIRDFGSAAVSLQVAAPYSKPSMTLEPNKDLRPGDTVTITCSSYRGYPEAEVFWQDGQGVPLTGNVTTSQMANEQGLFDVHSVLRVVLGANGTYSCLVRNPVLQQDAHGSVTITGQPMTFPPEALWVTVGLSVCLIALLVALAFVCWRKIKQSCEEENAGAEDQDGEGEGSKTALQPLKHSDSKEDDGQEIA
The experiment in a line: flow cytometry on CHO-S-human B7-H3-4Ig cells.

Test [2] concerns the target T2, human B7-H3 on human tumor cells (MCF-7, HT29, NCI-N87, HCC1806, HCC827) (human, UniProt Q5ZPR3 29-534).
T2 construct: whole, on cells
T2 sequence (looked up): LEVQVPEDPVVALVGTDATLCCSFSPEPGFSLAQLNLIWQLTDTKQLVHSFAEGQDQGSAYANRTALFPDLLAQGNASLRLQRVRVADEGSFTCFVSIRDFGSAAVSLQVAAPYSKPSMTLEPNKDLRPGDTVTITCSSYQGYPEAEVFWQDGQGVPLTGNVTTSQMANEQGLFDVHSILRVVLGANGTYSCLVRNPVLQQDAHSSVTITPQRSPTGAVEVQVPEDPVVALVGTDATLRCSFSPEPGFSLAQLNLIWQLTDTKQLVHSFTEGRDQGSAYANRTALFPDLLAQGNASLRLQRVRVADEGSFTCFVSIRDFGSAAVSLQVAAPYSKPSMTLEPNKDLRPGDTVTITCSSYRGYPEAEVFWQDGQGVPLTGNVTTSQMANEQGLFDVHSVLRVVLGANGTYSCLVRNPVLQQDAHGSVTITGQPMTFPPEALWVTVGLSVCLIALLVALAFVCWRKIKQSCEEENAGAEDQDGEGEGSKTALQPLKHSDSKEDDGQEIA
The experiment in a line: flow cytometry on HCC1806 cells.

For test [3], the target named is T3, rat B7-H3 on CHO-S cells (CHO-S-rat B7-H3) (rat, UniProt Q7TPB4 29-316).
T3 construct: whole, on cells; also called rat B7-H3-overexpressed cells
T3 sequence (looked up): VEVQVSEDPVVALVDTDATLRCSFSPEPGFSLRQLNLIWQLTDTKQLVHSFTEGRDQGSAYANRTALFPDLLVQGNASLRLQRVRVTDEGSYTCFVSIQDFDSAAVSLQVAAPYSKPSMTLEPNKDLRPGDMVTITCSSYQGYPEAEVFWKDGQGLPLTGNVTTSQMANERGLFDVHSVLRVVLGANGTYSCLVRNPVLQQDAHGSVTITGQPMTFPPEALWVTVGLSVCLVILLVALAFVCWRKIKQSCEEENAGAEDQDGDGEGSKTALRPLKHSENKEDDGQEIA
Nature of the test: flow cytometry on CHO-S-rat B7-H3 cells.

Test [4] deals with T2, human B7-H3 on human tumor cells …. The experiment in a line: flow cytometry on HCC827 cells.
For test [5], the target named is T4, human B7-H4-hFc (human, UniProt Q7Z7D3 25-259).
T4 construct: Bought protein; not shown: hFc
T4 sequence (looked up): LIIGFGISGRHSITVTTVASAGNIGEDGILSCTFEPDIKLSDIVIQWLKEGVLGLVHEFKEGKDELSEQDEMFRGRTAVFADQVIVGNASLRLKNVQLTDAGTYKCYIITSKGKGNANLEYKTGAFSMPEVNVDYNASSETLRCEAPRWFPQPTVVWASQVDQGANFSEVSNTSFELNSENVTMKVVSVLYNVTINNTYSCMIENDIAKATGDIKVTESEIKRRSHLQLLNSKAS
The experiment in a line: ELISA, antigen coated at 1 ug/ml, 2#8890-biotin detected with streptavidin-peroxidase.

The target of test [6] is T5, human B7-H1-mFc (human, UniProt Q9NZQ7 19-238).
T5 construct: Self-constructed; not shown: mFc
Described as above.

For test [7], the target named is T6, human B7-1-his (human, UniProt P33681 35-242).
T6 construct: Bought protein; not shown: his tag
T6 sequence (looked up): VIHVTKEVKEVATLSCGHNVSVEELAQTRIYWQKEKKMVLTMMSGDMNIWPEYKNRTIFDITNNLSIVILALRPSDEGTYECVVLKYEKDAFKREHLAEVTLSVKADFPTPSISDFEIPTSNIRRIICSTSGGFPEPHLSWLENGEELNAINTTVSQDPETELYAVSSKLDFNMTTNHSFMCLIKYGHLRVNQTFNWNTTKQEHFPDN
The experiment in a line: ELISA, antigen coated at 1 ug/ml.

Test [8] has as its target T7, human B7-H2-his (human, UniProt O75144 19-256, limits assumed).
T7 construct: Bought protein; not shown: his tag
T7 sequence (looked up): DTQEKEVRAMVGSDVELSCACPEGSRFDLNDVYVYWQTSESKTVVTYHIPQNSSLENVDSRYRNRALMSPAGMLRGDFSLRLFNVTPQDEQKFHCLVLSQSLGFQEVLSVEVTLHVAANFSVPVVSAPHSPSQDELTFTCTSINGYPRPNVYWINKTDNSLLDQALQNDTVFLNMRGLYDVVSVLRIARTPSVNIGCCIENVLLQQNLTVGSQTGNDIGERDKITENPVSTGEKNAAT
Nature of the test: ELISA, antigen coated at 1 ug/ml.

Test [9] addresses T8, human B7-2-his (human, UniProt P42081 24-247, limits assumed).
T8 construct: Bought protein; not shown: his tag
T8 sequence (looked up): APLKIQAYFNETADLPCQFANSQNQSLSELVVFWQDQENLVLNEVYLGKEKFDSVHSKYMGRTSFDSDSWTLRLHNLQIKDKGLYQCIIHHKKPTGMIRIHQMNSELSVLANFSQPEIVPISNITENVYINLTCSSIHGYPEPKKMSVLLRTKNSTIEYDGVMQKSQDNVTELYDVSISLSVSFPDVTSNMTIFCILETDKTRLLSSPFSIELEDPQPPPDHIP
Nature of the test: ELISA, antigen coated at 1 ug/ml.

Test [10] addresses T2, human B7-H3 on human tumor cells …. Nature of the test: flow cytometry on HT29 cells.
Test [11] shares this target. Nature of the test: cell-based or functional assay.
Test [12] deals with T9, monkey B7-H3 on CHO-S cells (CHO-S-monkey B7-H3) (monkey).
T9 construct: whole, on cells; also called monkey B7-H3-overexpressed cells
The experiment in a line: flow cytometry on CHO-S-monkey B7-H3 cells.

Test [13] has as its target T2, human B7-H3 on human tumor cells …. Nature of the test: flow cytometry on NCI-N87 cells.

T5 sequence (Q9NZQ7 19-238): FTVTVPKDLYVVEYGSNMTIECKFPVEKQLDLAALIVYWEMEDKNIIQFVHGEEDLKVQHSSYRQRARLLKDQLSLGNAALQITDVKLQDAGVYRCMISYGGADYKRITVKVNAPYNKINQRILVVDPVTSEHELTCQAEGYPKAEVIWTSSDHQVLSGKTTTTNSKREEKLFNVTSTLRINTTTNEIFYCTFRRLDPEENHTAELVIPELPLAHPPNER

B1: anti-human-B7-H3 human antibody 2#8890 (antibody, human IgG1, kappa, V domains shown)
VH: QVQLQESGPGLVQPSGTLSLTCAVSGGSDSSTNWWTWVRQSPGQGLEWIGEISPIGFTSYSPSLRSRVTISVDKSKTQFSLKLSSVTAADTAVYYCARDRLYFAFWGQGTLVTVSS
VL: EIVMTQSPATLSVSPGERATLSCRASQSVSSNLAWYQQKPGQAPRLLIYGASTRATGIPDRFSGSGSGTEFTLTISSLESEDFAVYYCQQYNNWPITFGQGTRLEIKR
Consider B1, for which the EC50 in test [1] is 0.115 µg/mL; in test [2], 0.00967 µg/mL; in test [4], 0.0123 µg/mL; in [10], 0.00634 µg/mL; in test [12], 0.0649 µg/mL; in [13] it was 0.00577 µg/mL. In addition, the binding result in [3], in [5], in test [6], in test [7], in test [8] and in test [9] was “no binding (tested: 10 ug/ml highest concentration)” in each case. The “Endocytosis EC50 on HCC827 cells (PHrodo, flow cytometry)” value in test [11] came to 0.0102 µg/mL. In addition, the “Endocytosis EC50 on HCC1806 cells (PHrodo, flow cytometry)” value in [11] came out at 0.0206 µg/mL. The “Endocytosis EC50 on NCI-N87 cells (PHrodo, flow cytometry)” value in test [11] was found to be 0.0122 µg/mL.
